In publication PMC8322156, “Nuclear condensates of p300 formed though the structured catalytic core can act as a storage pool of p300 with reduced HAT activity” (Nature Communications, 2021):
Each block holds one molecule with its values, some of them ahead of it. No end group written: not given here.

Assays:
[1] = system: p300 BRPHZ, SIRT2-deacetylated (~4 Kac, outside the AIL) (human); experiment: EMSA; details: EMSA: 20 mM Tris-HCl pH 7.5, 50 mM NaCl (75 mM for NCP), 2 mM DTT, 5 min; 5% PAGE in 0.2x TBE (DNA) or 0.2x TB (NCP), 100 V, on ice; SYBR Gold
[2] = target: T1, SIRT2-treated p300_(BRPHZ) (catalytic core BD-RING-PHD-HAT-ZZ, aa 1035-1720 of p300), hypoacetylated (human, UniProt Q09472 1035-1720, on average 4 acetyl-lysines outside the AIL left after SIRT2 treatment (sites not given)); experiment: recruitment of a labelled peptide into condensates (confocal microscopy); 13 uM SIRT2-treated p300 condensates (PEG-induced) mixed with 6 uM FAM-labeled H3 tail (aa 1-12); FAM alone as control; details: both partners purified
T1 construct: human p300, BD-RING-PHD-HAT-ZZ region (BRPHZ), amino acids 1035-1720; Heterogeneously acetylated; Vector pGEX-6P-1; also called SIRT2-deacetylated p300BRPHZ; deacetylated p300
T1 sequence (looked up): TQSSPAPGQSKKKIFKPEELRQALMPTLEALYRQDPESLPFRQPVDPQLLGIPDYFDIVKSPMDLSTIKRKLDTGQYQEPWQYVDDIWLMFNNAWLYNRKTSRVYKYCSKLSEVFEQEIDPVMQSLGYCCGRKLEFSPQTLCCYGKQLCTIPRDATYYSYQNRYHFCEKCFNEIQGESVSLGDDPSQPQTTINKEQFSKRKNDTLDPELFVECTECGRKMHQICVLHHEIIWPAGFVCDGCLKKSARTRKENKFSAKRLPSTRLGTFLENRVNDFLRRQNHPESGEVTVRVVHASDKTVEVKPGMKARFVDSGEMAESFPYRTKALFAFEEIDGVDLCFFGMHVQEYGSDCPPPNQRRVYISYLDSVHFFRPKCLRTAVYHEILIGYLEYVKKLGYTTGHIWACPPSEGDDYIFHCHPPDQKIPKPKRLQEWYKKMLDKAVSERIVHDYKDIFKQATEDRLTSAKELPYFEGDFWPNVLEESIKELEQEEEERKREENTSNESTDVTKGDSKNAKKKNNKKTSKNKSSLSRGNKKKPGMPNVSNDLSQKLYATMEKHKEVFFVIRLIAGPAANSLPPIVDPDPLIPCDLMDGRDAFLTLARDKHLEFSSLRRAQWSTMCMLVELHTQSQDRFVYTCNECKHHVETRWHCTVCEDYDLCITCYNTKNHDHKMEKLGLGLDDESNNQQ

Molecule: 601 DNA 147 bp
Kd [1]: 300 nM

binding result [2]: binds
B1: fluorescein (FAM)-labeled histone H3 tail peptide (residues 1-12 of H3) (peptide, UniProt P68431 2-13, looked up)
peptide: ARTKQTARKSTG
modifications: also: fluorescein (FAM) label, position not given here
notes: histone H3 tail, residues 1-12, unmodified; also called FAM-H3; FAM-labeled H3_(1-12) peptide
